# Assay results taken from article PMC4541722.
# B1: CDAHuman (Homo sapiens) (protein)
# chain: MAQKRPACTLKPECVQQLLVCSQEAKKSAYCPYSHFPVGAALLTQEGRIFKGCNIENACYPLGICAERTAIQKAVSEGYKDFRAIAIASDMQDDFISPCGACRQVMREFGTNWPVYMTKPDGTYIVMTVQELLPSSFGPEDLQKTQ
# Assays:
# [1] = substrate: Nc1ccn([C@H]2C[C@H](O)[C@@H](CO)O2)c(=O)n1; assay: HPLC deamination assay, non-linear regression; type: biochemical, Homo sapiens; conditions: PBS, 37 °C, 10 min, 11 nM enzyme
# [2] = substrate: Nc1ccn([C@@H]2O[C@H](CO)[C@@H](O)C2(F)F)c(=O)n1; assay: HPLC deamination assay, non-linear regression; type: biochemical, Homo sapiens; conditions: PBS, 37 °C, 10 min, 11 nM enzyme
protein,measurement,setting,value
B1,Km,[1],373 ± 138 µM
same,kcat,[1],7.8 ± 0.64 s⁻¹
same,kcat/Km,[1],21000 M⁻¹ s⁻¹
same,Km,[2],3080 ± 598 µM
same,kcat,[2],14 ± 0.91 s⁻¹
same,kcat/Km,[2],4000 M⁻¹ s⁻¹
